Measured values: patent US20230167182A1 (BIOSION, published 2023)
Substitutions are numbered along the chain they refer to. Where two headings read alike, the source gives them in different places. Values belong to the binder of their own block, whether it stands above or below them.

How the values were obtained:
macaca IL6R-his protein = biological target: T1, macaca IL6R-his protein (macaca mulatta); test: indirect ELISA on plate-coated macaca IL6R-his
T1 chain: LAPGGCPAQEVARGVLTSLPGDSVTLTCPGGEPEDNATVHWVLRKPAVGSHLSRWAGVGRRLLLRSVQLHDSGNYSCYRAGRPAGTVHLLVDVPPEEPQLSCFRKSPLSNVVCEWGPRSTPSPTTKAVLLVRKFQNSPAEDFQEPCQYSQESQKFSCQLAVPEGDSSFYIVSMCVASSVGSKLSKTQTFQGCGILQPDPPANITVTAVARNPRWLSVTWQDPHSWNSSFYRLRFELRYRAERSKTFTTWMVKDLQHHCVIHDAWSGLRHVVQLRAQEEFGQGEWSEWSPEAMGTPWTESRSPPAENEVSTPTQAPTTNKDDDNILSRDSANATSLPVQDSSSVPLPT

human IL6R-Fc protein [1] = biological target: T2, human IL6R-Fc protein (human, biotin-labeled in the ELISAs (sites not given)); test: ligand blocking ELISA: antibody pre-incubated with biotin-labeled human IL6R-Fc, added to plate-coated human IL6 (blocked ligand: human IL6)
T2 construct: In house made; also called biotin-labeled human IL6R-Fc protein
Method: (§1) The next day, anti-IL6R antibodies or controls were diluted with biotin labeled human IL6R-Fc protein (prepared in house, SEQ ID NO: 43, 39.5 ng/ml in 2.5% w/v non-fatty milk in PBST), starting at 100 nM with a 4-fold serial dilution, and incubated at room temperature for 40 minutes. […] Plates were washed for 4 times using wash buffer, and added and incubated with 100 μl/well of streptavidin conjugated HRP (1:10000 dilution in PBST buffer, Jackson ImmunoResearch Laboratories, Inc., Cat #016-030-084) for 40 minutes at 37° C. Plates were washed again using wash buffer. Finally, TMB was added and the reaction was stopped using 1M H₂SO₄. The absorbance was read on a microplate reader using dual wavelength mode with 450 nm for TMB and 630 nm as the reference wavelength, and then the OD (450-630) values were plotted against antibody concentration. Data was analyzed using Graphpad Prism software and IC₅₀ values were reported.

[2] = biological target: T3, human IL6R expressed on cell surface (human, UniProt P08887 20-468); test: cell-based binding FACS on U266 cells
T3 construct: whole, on cells; also called cell surface human IL6R; U266 cells expressing human IL6R
T3 sequence (looked up): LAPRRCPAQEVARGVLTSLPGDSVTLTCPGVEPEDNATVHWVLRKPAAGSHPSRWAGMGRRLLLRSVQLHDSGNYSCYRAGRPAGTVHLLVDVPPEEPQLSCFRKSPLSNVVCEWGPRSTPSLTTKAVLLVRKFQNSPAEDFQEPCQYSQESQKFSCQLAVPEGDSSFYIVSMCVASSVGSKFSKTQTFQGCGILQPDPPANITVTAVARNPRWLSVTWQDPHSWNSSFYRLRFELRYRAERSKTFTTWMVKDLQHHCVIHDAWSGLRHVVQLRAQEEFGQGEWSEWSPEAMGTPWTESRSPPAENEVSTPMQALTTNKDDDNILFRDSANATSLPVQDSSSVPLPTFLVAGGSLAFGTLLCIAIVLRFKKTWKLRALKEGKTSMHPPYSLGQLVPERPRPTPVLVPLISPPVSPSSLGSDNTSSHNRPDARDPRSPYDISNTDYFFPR
Method: (§2) The binding activities of the mouse anti-IL6R antibodies to IL6R expressed on cell surface were tested by flow cytometry (FACS). Briefly, human myeloma cells U266 (ATCC® TIB-196™) were harvested from cell culture flasks, washed twice and resuspended in phosphate buffered saline (PBS) containing 2% v/v Fetal Bovine Serum (FACS buffer). 2×10⁵ U266 cells per well were incubated in 96 well-plates with 100 μl of the anti-IL6R antibodies or controls at various concentrations (starting at 40 nM with a 3-fold serial dilution in FACS buffer) for 40 minutes on ice. Cells were washed twice with FACS buffer, and added with 100 μL/well R-Phycoerythrin AffiniPure F(ab′)₂ Fragment Goat Anti-Mouse IgG (H+L) (1:1000 dilution in FACS buffer, Jackson ImmunoResearch Laboratories, Inc., Cat #115-116-146). Following an incubation of 40 minutes at 4° C. in dark, cells were washed three times and resuspended in FACS buffer. Fluorescence was measured using a Becton Dickinson FACS Canto II-HTS equipment. Data was analyzed using Graphpad Prism software and EC₅₀ values were reported.

[3] = biological target: T3, human IL6R expressed on cell surface; test: cell-based binding FACS on U266 cells; remark: listed apart in the source
Method: as §2

human IL6R-Fc protein [4] = biological target: T2, human IL6R-Fc protein; test: ligand blocking ELISA: antibody pre-incubated with biotin-labeled human IL6R-Fc, added to plate-coated human IL6 (blocked ligand: human IL6); remark: listed apart in the source
Method: as §1

human IL6R-Fc protein [5] = biological target: T2, human IL6R-Fc protein; test: benchmark blocking ELISA: antibody pre-incubated with biotin-labeled human IL6R-Fc, added to plate-coated Tocilizumab (competitor: Tocilizumab)
Method: ELISA plates were washed once with wash buffer (PBS+0.05% v/v Tween-20, PBST) and then blocked with 200 μl/well blocking buffer (5% w/v non-fatty milk in PBST) overnight at 4° C.
The next day, the anti-IL6R antibodies of the disclosure or controls were diluted with biotin labeled human IL6R-Fc protein (SEQ ID NO: 43, 13.6 ng/ml in 2.5% w/v non-fatty milk in PBST), starting at 100 nM with a 5-fold serial dilution, and incubated at room temperature for 40 minutes. […] After incubation at 37° C. for 40 minutes, plates were washed 4 times using wash buffer. Then streptavidin conjugated HRP was added, and the plates were incubated for 40 minutes at 37° C. The plates were finally washed using wash buffer, and added with TMB. The reaction was stopped using 1M […], and the absorbance was read on a microplate reader using dual wavelength mode with 450 nm for TMB and 630 nm as the reference wavelength. The OD (450-630) values were plotted against antibody concentration. Data was analyzed using Graphpad Prism software and IC₅₀ values were reported.

EC50 (macaca IL6R-his protein): 0.242 nM
B1: humanized antibody hu1H7-V5 (antibody, human IgG1, kappa, V domains shown)
VH: QVQLVQSGAEVKKPGASVKVSCKASGYTFTNYWMHWVRQAPGQGLEWIGEINPTNGRTNYNENFKSRVTLTVDTSTSTVYMELSSLRSEDTAVYYCARLNTHYVFDSWGQGTLVTVSS
VL: EIVLTQSPGTLSLSPGERATLSCSVSSSISSNYLHWYQQKPGLSPRLLISRTSTLASGIPARFSGSGSGTEYTLTISRMQSEDFAVYYCQQGSGIPFTFGQGTKLEIKR
notes: Human IgG1 / kappa

IC50 (human IL6R-Fc protein [1]): 2.54 nM
EC50 (macaca IL6R-his protein): 0.201 nM
EC50 [2]: 1.64 nM
EC50 [3]: 1.49 nM
IC50 (human IL6R-Fc protein [4]): 2.51 nM
IC50 (human IL6R-Fc protein [5]): 2.58 nM
B2: Tocilizumab (antibody, human IgG1, kappa, V domains shown)
VH: QVQLQESGPGLVRPSQTLSLTCTVSGYSITSDHAWSWVRQPPGRGLEWIGYISYSGITTYNPSLKSRVTMLRDTSKNQFSLRLSSVTAADTAVYYCARSLARTTAMDYWGQGSLVTVSS
VL: DIQMTQSPSSLSASVGDRVTITCRASQDISSYLNWYQQKPGKAPKLLIYYTSRLHSGVPSRFSGSGSGTDFTFTISSLQPEDIATYYCQQGNTLPYTFGQGTKVEIKR
notes: In house made; also called benchmark; Actemra

EC50 (macaca IL6R-his protein): 0.227 nM
B3: Chimeric 1H7 (antibody, human IgG1, kappa, V domains shown)
VH: QVQLQQPGTELVKPGASVKLSCKASGYTFTNYWMHWVKQRPGQGLDWIGEINPTNGRTNYNENFKSKATLTVDKSSSTAYMQLSSLTSEDSAVYYCARLNTHYVFDSWGQGTTLTLSS
VL: EIVLTQSPTTLAASPGEKITFTCSVSSSISSNYLHWYQQKPGFSPKLLISRTSTLASGVPARFSGSGSGTSYSLTIGTMEAEDVATYYCQQGSGIPFTFGSGTKLELKR
notes: Mouse variable regions on human IgG1 / human kappa constant regions; also called chimeric antibody 1H7

EC50 [2]: 0.304 nM
IC50 (human IL6R-Fc protein [5]): 0.311 nM
B4: mouse anti-IL6R monoclonal antibody 1F7 (antibody, V domains shown)
VH: QVQLQQPGAELVKPGASVKLSCKASDYTFTSYWMHWVKQRPGQGLEWIGEINPSNGRTNYNEKFKNKATLTVDKSSSTAYVQLYSLTSEDSAVYYCARLSIHYVFDYWGQGTTLTVSS
VL: ELVLTQSPTTMAASPGEKITFTCSASSSISSNYLHWYQQKPGFSPKLLISGTSNLASGVPPRFSGSGSGTSYSLTIVTMEAEDVATYYCQQGSGIPFTFGSGTKLEIK
notes: Mouse hybridoma mAb

EC50 [3]: 0.286 nM
IC50 (human IL6R-Fc protein [4]): 0.704 nM
B5: mouse anti-IL6R monoclonal antibody 3C2 (antibody, V domains shown)
VH: B3 VH with N31T, M34I, D46E, T54S, N63H, Y80S, E89A, L116V
VL: B4 VL with L2I, F21I, S50Y, G51R, P61T, R62H, V77G
notes: Mouse hybridoma mAb

IC50 (human IL6R-Fc protein [1]): 0.601 nM
EC50 (macaca IL6R-his protein): 0.147 nM
EC50 [2]: 0.246 nM
B6: mouse anti-IL6R monoclonal antibody 1H7 (antibody, V domains shown)
VH: B3 VH
VL: B4 VL with L2I, M11L, A25V, G51R, N54T, P61A, V77G, I107L
notes: Mouse hybridoma mAb

EC50 [2]: 0.274 nM
IC50 (human IL6R-Fc protein [5]): 0.467 nM
B7: mouse anti-IL6R monoclonal antibody 1D4 (antibody, V domains shown)
VH: B3 VH with T9A, N31S, Q39V, D46E, N63D, D73N, K74S, S107Y, L116V
VL: B4 VL with L2I, T10I, M11L, A25V, S50Y, G51R, P61A, V77G
notes: Mouse hybridoma mAb

EC50 [3]: 0.34 nM
IC50 (human IL6R-Fc protein [4]): ~1.44 nM
B8: mouse anti-IL6R monoclonal antibody 1G1 (antibody, V domains shown)
VH: B3 VH with T9A, N31S, Q39V, D46E, N63D, D73E, K74S, L83F, S107Y, L116V
VL: B4 VL with L2I, T10I, M11L, A25V, S50Y, G51R, P61A, V77G
notes: Mouse hybridoma mAb

IC50 (human IL6R-Fc protein [1]): 1.05 nM
EC50 [2]: 0.391 nM
B9: mouse anti-IL6R monoclonal antibody 1H9 (antibody, V domains shown)
VH: QVQLQQPGAELVKPGASVKLSCKASGYTFTSYWMHWVKLRPGQGLEWIGEINPTNGRTNYYEKFKNRATLTADKSSSTAYMQLSSLTFEDSAVYFCAKFHYSRWYFDVWGTGTTVTVSS
VL: DIVMTQSQKFMSTSVGDRVSITCKASQNVGTAVVWYQQKPGQSPKLLINPASNRYTGVPDRFTGSGSGTDFTLTISNMQSEDLADYFCQQYSSYPLTFGAGTKLELK
notes: Mouse hybridoma mAb
